Assays:
Assay in all cases: killing
[1] = biological target: T1, MAGE-B2 peptide, V10F peptide on HLA-A*02:01 (human)
T1 peptide: GVYDGEEHSF

[2] = biological target: T2, MAGE-B2 peptide, G1E peptide on HLA-A*02:01 (human)
T2 peptide: EVYDGEEHSV

[3] = biological target: T3, MAGE-B2 peptide, G1W peptide on HLA-A*02:01 (human)
T3 peptide: WVYDGEEHSV

[4] = biological target: T4, MAGE-B2 peptide, G1Y peptide on HLA-A*02:01 (human)
T4 peptide: YVYDGEEHSV

[5] = biological target: T5, MAGE-B2 peptide, V10M peptide on HLA-A*02:01 (human)
T5 peptide: GVYDGEEHSM

[6] = biological target: T6, MAGE-B2 peptide, G1H peptide on HLA-A*02:01 (human)
T6 peptide: HVYDGEEHSV

[7] = biological target: T7, MAGE-B2 peptide, G1Q peptide on HLA-A*02:01 (human)
T7 peptide: QVYDGEEHSV

[8] = biological target: T8, MAGE-B2 peptide, V10C peptide on HLA-A*02:01 (human)
T8 peptide: GVYDGEEHSC

[9] = biological target: T9, MAGE-B2 peptide, V2G peptide on HLA-A*02:01 (human)
T9 peptide: GGYDGEEHSV

[10] = biological target: T10, MAGE-B2 peptide, G1F peptide on HLA-A*02:01 (human)
T10 peptide: FVYDGEEHSV

[11] = biological target: T11, MAGE-B2 peptide, G1N peptide on HLA-A*02:01 (human)
T11 peptide: NVYDGEEHSV

[12] = biological target: T12, MAGE-B2 peptide, G5R peptide on HLA-A*02:01 (human)
T12 peptide: GVYDREEHSV

[13] = biological target: T13, MAGE-B2 peptide, D4E peptide on HLA-A*02:01 (human)
T13 peptide: GVYEGEEHSV

[14] = biological target: T14, MAGE-B2 peptide, D4W peptide on HLA-A*02:01 (human)
T14 peptide: GVYWGEEHSV

[15] = biological target: T15, MAGE-B2 peptide, G1V peptide on HLA-A*02:01 (human)
T15 peptide: VVYDGEEHSV

[16] = biological target: T16, MAGE-B2 peptide, G5C peptide on HLA-A*02:01 (human)
T16 peptide: GVYDCEEHSV

[17] = biological target: T17, MAGE-B2 peptide, G1I peptide on HLA-A*02:01 (human)
T17 peptide: IVYDGEEHSV

[18] = biological target: T18, MAGE-B2 peptide, G5L peptide on HLA-A*02:01 (human)
T18 peptide: GVYDLEEHSV

[19] = biological target: T19, MAGE-B2 peptide, V2C peptide on HLA-A*02:01 (human)
T19 peptide: GCYDGEEHSV

[20] = biological target: T20, MAGE-B2 peptide, V2A peptide on HLA-A*02:01 (human)
T20 peptide: GAYDGEEHSV

[21] = biological target: T21, MAGE-B2 peptide, G1T peptide on HLA-A*02:01 (human)
T21 peptide: TVYDGEEHSV

[22] = biological target: T22, MAGE-B2 peptide, V2S peptide on HLA-A*02:01 (human)
T22 peptide: GSYDGEEHSV

[23] = biological target: T23, MAGE-B2 peptide, G1D peptide on HLA-A*02:01 (human)
T23 peptide: DVYDGEEHSV

[24] = biological target: T24, MAGE-B2 peptide, G1L peptide on HLA-A*02:01 (human)
T24 peptide: LVYDGEEHSV

[25] = biological target: T25, MAGE-B2 peptide, E6N peptide on HLA-A*02:01 (human)
T25 peptide: GVYDGNEHSV

[26] = biological target: T26, MAGE-B2 peptide, E6D peptide on HLA-A*02:01 (human)
T26 peptide: GVYDGDEHSV

[27] = biological target: T27, MAGE-B2 peptide, G5P peptide on HLA-A*02:01 (human)
T27 peptide: GVYDPEEHSV

[28] = biological target: T28, MAGE-B2 peptide, E6P peptide on HLA-A*02:01 (human)
T28 peptide: GVYDGPEHSV

[29] = biological target: T29, MAGE-B2 peptide, E6A peptide on HLA-A*02:01 (human)
T29 peptide: GVYDGAEHSV

[30] = biological target: T30, MAGE-B2 peptide, G5A peptide on HLA-A*02:01 (human)
T30 peptide: GVYDAEEHSV

[31] = biological target: T31, MAGE-B2 peptide, V10Y peptide on HLA-A*02:01 (human)
T31 peptide: GVYDGEEHSY

[32] = biological target: T32, MAGE-B2 peptide, E6I peptide on HLA-A*02:01 (human)
T32 peptide: GVYDGIEHSV

[33] = biological target: T33, MAGE-B2 peptide, E6F peptide on HLA-A*02:01 (human)
T33 peptide: GVYDGFEHSV

[34] = biological target: T34, MAGE-B2 peptide, E7R peptide on HLA-A*02:01 (human)
T34 peptide: GVYDGERHSV

[35] = biological target: T35, MAGE-B2 peptide, E6L peptide on HLA-A*02:01 (human)
T35 peptide: GVYDGLEHSV

[36] = biological target: T36, MAGE-B2 peptide, E6Y peptide on HLA-A*02:01 (human)
T36 peptide: GVYDGYEHSV

[37] = biological target: T37, MAGE-B2 peptide, E6R peptide on HLA-A*02:01 (human)
T37 peptide: GVYDGREHSV

[38] = biological target: T38, MAGE-B2 peptide, E6K peptide on HLA-A*02:01 (human)
T38 peptide: GVYDGKEHSV

[39] = biological target: T39, MAGE-B2 peptide, E7G peptide on HLA-A*02:01 (human)
T39 peptide: GVYDGEGHSV

Measured: binding result

B1: TCR1 (TCR, V domains shown)
Valpha: KQEVTQIPAALSVPEGENLVLNCSFTDSAIYNLQWFRQDPGKGLTSLLLIQSSQREQTSGRLNASLDKSSGRSTLYIAASQPGDSATYLCAAMKTSYDKVIFGPGTSLSVIP
Vbeta: GEEVAQTPKHLVRGEGQKAKLYCAPIKGHSYVFWYQQVLKNEFKFLISFQNENVFDETGMPKERFSAKCLPNSPCSLEIQATKLEDSAVYFCASSQGQGGYGYTFGSGTRLTVV
recognises: [1] | [2] | [3] | [4] | [5] | [6] | [7] | [8] | [9] | [10] | [11] | [12] | [13] | [14] | [15] | [16] | [17] | [18] | [19] | [20] | [21] | [22] | [23] | [24]

B2: TCR2 (TCR, V domains shown)
Valpha: QKEVEQNSGPLSVPEGAIASLNCTYSDRGSQSFFWYRQYSGKSPELIMSIYSNGDKEDGRFTAQLNKASQYVSLLIRDSQPSDSATYLCAVNIPFSNSGGYQKVTFGTGTKLQVIP
Vbeta: NAGVTQTPKFRVLKTGQSMTLLCAQDMNHEYMYWYRQDPGMGLRLIHYSVGEGTTAKGEVPDGYNVSRLKKQNFLLGLESAAPSQTSVYFCASRHPGQYNQPQHFGDGTRLSIL
recognises: [25] | [26] | [27]

B3: TCR3 (TCR, V domains shown)
Valpha: AQKVTQAQTEISVVEKEDVTLDCVYETRDTTYYLFWYKQPPSGELVFLIRRNSFDEQNEISGRYSWNFQKSTSSFNFTITASQVVDSAVYFCALSVLRMDSSYKLIFGSGTRLLVRP
Vbeta: NAGVTQTPKFRVLKTGQSMTLLCAQDMNHEYMYWYRQDPGMGLRLIHYSVGEGTTAKGEVPDGYNVSRLKKQNFLLGLESAAPSQTSVYFCASSLQGAGQPQHFGDGTRLSIL
recognises: [28] | [29] | [30] | [31] | [32] | [33] | [34] | [35] | [36] | [37] | [38] | [39]

Source: patent US20240100162A1 (published 2024)
